Data on 62 sequences can be found in the supplement of paper PMC10724198.

Data set [1] concerns Saccharomyces cerevisiae. As to the kind of experiment: protein stability index of tFT-peptide fusion (C-terminal peptide) (PSI (0-1 scale)); higher = more stable (slower turnover). On the procedure: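 MPS profiling in S. cerevisiae of the tFT-X12 degron library: putative degron peptides plus stable controls, 12 aa, fused to the C-terminus of a sfGFP-mCherry timer. Cells are FACS-sorted into 8 mCherry/sfGFP bins and deep-sequenced. PSI runs from 0 (unstable) to 1 (stable). Backgrounds are wild type, das1Δ and doa10Δ at 30 °C, and wild type, das1Δ, cdc34-1 and cdc53-1 at 37 °C; 2-3 technical replicates each.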

Data set [2] deals with Saccharomyces cerevisiae. The description is as above. The settings on record: genetic background: wild type; temperature: 30 C.
The mark [3] stands for this setting: genetic background: cdc34-1, temperature: 37 C.
[4] abbreviates: genetic background: cdc53-1, temperature: 37 C.
Setting [5] is: genetic background: das1 deletion, temperature: 30 C.
Where [6] appears, read: genetic background: das1 deletion, temperature: 37 C.
[7] abbreviates: genetic background: doa10 deletion, temperature: 30 C.
Where [8] appears, read: genetic background: wild type, temperature: 30 C.
The mark [9] stands for this setting: genetic background: wild type, temperature: 37 C.

± gives the standard deviation of the averaged measurements.
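Further: PSI is a weighted mean of sequencing reads over stability bins, variants kept only with over 10 reads, mCherry proximal and sfGFP distal, peptide attached via GGGS linker.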

For the sequence VLLCGRMVVVEW, the protein stability index is 0.0831 ± 0.0095 in the data set on Saccharomyces cerevisiae [1] (setting [3]); 0.163 ± 0.0037 in the data set on Saccharomyces cerevisiae [1] (setting [4]); 0.163 ± 0.01 in the data set on Saccharomyces cerevisiae [1] (setting [5]); 0.143 ± 0.011 with Saccharomyces cerevisiae [1] (setting [6]); 0.196 ± 0.032 in the data set with Saccharomyces cerevisiae [1] (setting [7]); 0.153 ± 0.014 in the data set on Saccharomyces cerevisiae [1] (setting [8]). For the same sequence, the protein stability index with Saccharomyces cerevisiae [1] (setting [9]) was determined as 0.132 ± 0.021. Take WVFYAVRWRTWN: the protein stability index in the data set on Saccharomyces cerevisiae [1] (setting [3]) came to 0.254 ± 0.015; in the data set on Saccharomyces cerevisiae [1] (setting [4]), 0.44 ± 0.0092; in the data set with Saccharomyces cerevisiae [1] (setting [5]), 0.311 ± 0.037; in the data set with Saccharomyces cerevisiae [1] (setting [6]) it was 0.54 ± 0.017; in the data set with Saccharomyces cerevisiae [1] (setting [7]), 0.0632 ± 0.0063; in the data set on Saccharomyces cerevisiae [1] (setting [8]), 0.066 ± 0.018. In the data set with Saccharomyces cerevisiae [1] (setting [9]), this sequence had a protein stability index of 0.061 ± 0.0063. With YCLERVPAEYDG, the protein stability index with Saccharomyces cerevisiae [2] is 0.67 ± 0.019.

Turning to YCVMEVAGLEWE, in the data set on Saccharomyces cerevisiae [2], the protein stability index came to 0.69 ± 0.038.

As for YDFHWAYFHSLY, in the data set on Saccharomyces cerevisiae [2], the protein stability index turned out to be 0.7113 ± 0.0035. YFCGARSVGPGD displayed a protein stability index in the data set with Saccharomyces cerevisiae [2] of 0.717 ± 0.035.

The sequence YFVAVLGRCIRG came in with a protein stability index in the data set with Saccharomyces cerevisiae [2] of 0.6519 ± 0.0011.

In turn, YGAGLSHLFRIS displayed a protein stability index with Saccharomyces cerevisiae [2] of 0.636 ± 0.041. The same measure, in the same setting: the result for YGGGVWRGVALG reads 0.6914 ± 0.0052; that for YGLVSFVCFNGG, 0.679 ± 0.042; that for YGTGNGRRTYFD, 0.735 ± 0.04. YGVLEYLRDLVF: the protein stability index in the data set with Saccharomyces cerevisiae [2] worked out at 0.689 ± 0.016. On the same count and under the same terms, the result for YIGSVCLCVSPV reads 0.5999 ± 0.0038; that for YIHQRKGRKPNE, 0.622 ± 0.057.

In turn, YINTKKKKINKT displayed a protein stability index in the data set on Saccharomyces cerevisiae [2] of 0.655 ± 0.014.

For the sequence YIQGAPGGLGYP, the protein stability index with Saccharomyces cerevisiae [2] amounted to 0.713 ± 0.0077. The same measure, in the same setting: the result for YKGQVKKNNPQC reads 0.726 ± 0.033; that for YKGRYDCRVGGR, 0.682 ± 0.0096; that for YKKVKADKKKRM, 0.687 ± 0.017. The same measure, in the same setting: the result for YLCVLASLSSTF reads 0.591 ± 0.022.

With YLFVRTGYRCKW, the protein stability index in the data set on Saccharomyces cerevisiae [2] turned out to be 0.681 ± 0.033. Still for that read-out and setting: the result for YLGFRADVVFGK reads 0.712 ± 0.063; that for YLGFRVACPMLA, 0.501 ± 0.036; that for YLGWLYQKCGTV, 0.639 ± 0.056. The same measure, in the same setting: the result for YLKVNDELERRR reads 0.695 ± 0.05; that for YLRACDPPAVHR, 0.67 ± 0.024. Same read-out and setting: the result for YLRGRCSSLSLR reads 0.698 ± 0.036; that for YLSPPLLPSFPL, 0.728 ± 0.021. The sequence YLSVLQLRCFPA displayed a protein stability index in the data set on Saccharomyces cerevisiae [2] of 0.659 ± 0.019. Still for that read-out and setting: the result for YLTNIHQRVLLP reads 0.659 ± 0.031; that for YLVKSCCNKDNV, 0.659 ± 0.029; that for YLVPPLQPHSPA, 0.7305 ± 0.0056.

In the data set on Saccharomyces cerevisiae [2], YLVRENLFSRLV came in with a protein stability index of 0.466 ± 0.07. The sequence YMAGPAQGRDGS had a protein stability index in the data set on Saccharomyces cerevisiae [2] of 0.668 ± 0.013.

For YNANEKTINKDK, in the data set on Saccharomyces cerevisiae [2], the protein stability index stood at 0.693 ± 0.063.

In the data set with Saccharomyces cerevisiae [2], YNYADVCTNESP yielded a protein stability index of 0.7 ± 0.022. Still for that read-out and setting: the result for YPCPPLLISSPP reads 0.709 ± 0.051; that for YPPLSYSFCHRP, 0.637 ± 0.072; that for YPSQLGPSVPLS, 0.703 ± 0.039. As for YPTCPPPSARRV, in the data set on Saccharomyces cerevisiae [2], the protein stability index stood at 0.58 ± 0.025. Same read-out and setting: the result for YQGERGAIGVIF reads 0.605 ± 0.013.

In the data set on Saccharomyces cerevisiae [2], YRAHAYPYVPRS displayed a protein stability index of 0.682 ± 0.027. On the same count and under the same terms, the result for YRALRRAFENKI reads 0.633 ± 0.028; that for YRCVQKEIVQRY, 0.693 ± 0.056; that for YRDSLLATNFFS, 0.694 ± 0.056. Same read-out and setting: the result for YREIVKQTENKR reads 0.673 ± 0.0083; that for YRPLEQLLSLSH, 0.651 ± 0.08; that for YSFFTLCLSLPA, 0.557 ± 0.025. In the case of YSHPCLSCREAH, the protein stability index with Saccharomyces cerevisiae [2] worked out at 0.749 ± 0.057. The sequence YSIKSTVTYSVH came in with a protein stability index in the data set with Saccharomyces cerevisiae [2] of 0.574 ± 0.066. Same read-out and setting: the result for YSLASRVVNFCA reads 0.497 ± 0.012; that for YSLLSAHLVPIA, 0.614 ± 0.027; that for YSLVKITHGRKK, 0.684 ± 0.015. The same measure, in the same setting: the result for YSSFRSVNWVFP reads 0.6838 ± 0.0033; that for YSSLLLPPLLLF, 0.621 ± 0.025; that for YSTYGGGYFMAF, 0.668 ± 0.031. On the same count and under the same terms, the result for YTLMEERTKKDN reads 0.742 ± 0.068.

For the sequence YTMGGSLSVSLD, the protein stability index with Saccharomyces cerevisiae [2] came to 0.817 ± 0.16.

For YTPLLAHRGCCC, the protein stability index in the data set with Saccharomyces cerevisiae [2] was 0.695 ± 0.029. The same measure, in the same setting: the result for YVPTPSRPRRNR reads 0.718 ± 0.066; that for YYPLLLASQLPI, 0.735 ± 0.0041. On the same count and under the same terms, the result for YYRLLACQRPSR reads 0.679 ± 0.027.
